To fix the notation:
B1: Anti-NKp46 IgG (antibody, V domains shown)
VH: QVQLVQSGAEVKKPGSSVKVSCKASGYTFSDYVINWVRQAPGQGLEWMGEIYPGSGTNYYNEKFKAKATITADKSTSTAYMELSSLRSEDTAVYYCARRGRYGLYAMDYWGQGTTVTVSS
VL: DIQMTQSPSSLSASVGDRVTITCRASQDISNYLNWYQQKPGKAPKLLIYYTSRLHSGVPSRFSGSGSGTDFTFTISSLQPEDIATYFCQQGNTRPWTFGGGTKVEIK
notes: human IgG1 heavy chain constant region (CH1, hinge, CH2, CH3); numbers count on: EU numbering; IgG1 with LALA; also called parental monospecific anti-NKp46 antibody; anti-NKp46 LALA IgG; source: Expi293 cells, transiently transfected, purified (MabSelect); copies: 2 + 2
B2: Anti-NKp46_AB_H05 (bispecific antibody, V domains shown)
VH: B1 VH
VL: B1 VL
notes: human IgG1 heavy chain constant region from its start to the PPSR motif before the AB loop of CH3; numbers count on: EU numbering; Gly4Ser linker; anti-EGFR bovine knob H05 (from an ultralong CDR-H3); human IgG1 heavy chain constant region from the motif after the AB loop of CH3 (printed as NGVS) to its end; as the light chain of m1; IgG1 with LALA; EEMTK of the AB loop replaced by G4S-knob-G4S; …
B3: Anti-NKp46_EF_F06 (bispecific antibody, V domains shown)
VH: B1 VH
VL: B1 VL
notes: human IgG1 heavy chain constant region from its start to the KLTV motif before the EF loop of CH3; numbers count on: EU numbering; Gly4Ser linker; anti-EGFR bovine knob F06 (from an ultralong CDR-H3); human IgG1 heavy chain constant region from the RWQQ motif after the EF loop of CH3 to its end; as the light chain of m1; IgG1 with LALA; DKS of the EF loop replaced by G4S-knob-G4S (results); …
B4: Anti-NKp46_EF_H05 (bispecific antibody, V domains shown)
VH: B1 VH
VL: B1 VL
notes: human IgG1 heavy chain constant region from its start to the KLTV motif before the EF loop of CH3; numbers count on: EU numbering; Gly4Ser linker; anti-EGFR bovine knob H05 (from an ultralong CDR-H3); human IgG1 heavy chain constant region from the RWQQ motif after the EF loop of CH3 to its end; as the light chain of m1; IgG1 with LALA; DKS of the EF loop replaced by G4S-knob-G4S (results); …
B5: Anti-NKp46_AB_F06 (bispecific antibody, V domains shown)
VH: B1 VH
VL: B1 VL
notes: human IgG1 heavy chain constant region from its start to the PPSR motif before the AB loop of CH3; numbers count on: EU numbering; Gly4Ser linker; anti-EGFR bovine knob F06 (from an ultralong CDR-H3); human IgG1 heavy chain constant region from the motif after the AB loop of CH3 (printed as NGVS) to its end; as the light chain of m1; IgG1 with LALA; EEMTK of the AB loop replaced by G4S-knob-G4S; …

As a reminder, the Kd is the constant that tells how readily two partners part at equilibrium. Lower therefore signals a tighter complex.

T1 sequence (O76036 22-258): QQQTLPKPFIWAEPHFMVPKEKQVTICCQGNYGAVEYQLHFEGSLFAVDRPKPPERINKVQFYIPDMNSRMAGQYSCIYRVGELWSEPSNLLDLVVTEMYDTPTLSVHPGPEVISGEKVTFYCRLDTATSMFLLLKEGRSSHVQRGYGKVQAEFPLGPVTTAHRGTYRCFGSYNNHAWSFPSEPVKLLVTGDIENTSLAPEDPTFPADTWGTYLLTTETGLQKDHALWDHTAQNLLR

The test concerns the target T1, NKp46-His6 (Homo sapiens, UniProt O76036).
T1 construct: recombinant human NKp46 (natural cytotoxicity receptor); soluble recombinant receptor; probably the extracellular domain; also called (rh) NKp46; recombinant NKp46-His6; source: bought: AcroBiosystems
The experiment in a line: BLI; antibodies loaded at 5 µg/ml on anti-human-Fc (AHC) or anti-human-CH1 (FAB2G) biosensors; antigen in solution (EGFR 3.125-200 nM; NKp46 and NKp30 1.6-100 nM) in kinetics buffer (PBS, 0.1% Tween-20, 1% BSA); 25°C; 1:1 binding model. The note with it: both partners purified. Background: In BLI a coated tip is dipped into the sample, and binding shifts an interference pattern.
Molecule B1 had a Kd of 1 nM.
The figure for B2 is 3.4 nM.
The figure for B3 is 3 nM.
The figure for B4 is 3.6 nM; for B5 it is 2 nM.

These data come from paper PMC10628450 (Frontiers in Immunology, 2023).
